Test results from patent US20240401082A1 (Sanofi, published 2024).

Key:
[1] = target: T1, human complement C1s enzyme (activated C1s) (human, UniProt P09871 16-437; P09871 438-688); test: cell-based or functional assay
T1 sequence 1: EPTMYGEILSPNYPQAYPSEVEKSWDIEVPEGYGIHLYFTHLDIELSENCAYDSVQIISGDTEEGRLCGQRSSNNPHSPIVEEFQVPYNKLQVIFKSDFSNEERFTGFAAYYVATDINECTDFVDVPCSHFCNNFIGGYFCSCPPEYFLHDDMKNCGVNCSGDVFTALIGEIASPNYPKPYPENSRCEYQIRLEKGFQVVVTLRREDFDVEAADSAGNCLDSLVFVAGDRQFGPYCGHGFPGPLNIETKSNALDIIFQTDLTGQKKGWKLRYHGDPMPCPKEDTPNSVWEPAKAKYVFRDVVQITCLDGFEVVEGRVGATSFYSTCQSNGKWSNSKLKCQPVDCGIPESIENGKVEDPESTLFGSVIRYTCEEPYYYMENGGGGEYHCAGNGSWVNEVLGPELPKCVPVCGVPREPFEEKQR
T1 sequence 2: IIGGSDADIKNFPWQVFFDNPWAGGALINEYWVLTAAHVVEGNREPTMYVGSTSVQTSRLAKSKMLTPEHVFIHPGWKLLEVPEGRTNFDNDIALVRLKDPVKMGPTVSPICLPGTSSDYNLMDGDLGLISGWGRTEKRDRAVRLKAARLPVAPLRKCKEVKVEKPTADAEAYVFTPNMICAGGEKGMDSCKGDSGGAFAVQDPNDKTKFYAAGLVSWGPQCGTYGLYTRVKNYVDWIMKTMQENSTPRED

[2] = target: T1, human complement C1s enzyme (activated …); test: BLI (Octet), biotinylated target on streptavidin sensor; mixture of the two scFabs from construct #9; mixture of the two scFabs from construct #9
[3] = target: T1, human complement C1s enzyme (activated …); test: BLI (Octet), biotinylated target on streptavidin sensor; protein purified to >98%
Source text: (§1) Bio-layer interferometry (BLI) was used to assess the recombinant proteins' target engagement to and binding affinity for complement C1s enzyme (active C1s or “C1s” herein) and factor Bb (Bb) (Complement Technology, Tyler, TX, USA). C1s and Bb were biotinylated with EZ-Link™ Sulfo-NHS-LC-LC-Biotin (Thermo Fisher, Waltham, MA, USA) according to manufacturer instructions. Biotinylated C1s or Bb was loaded on Octet® Streptavidin (SA) Biosensors (Sartorius, Göttingen, Germany), followed by a concentration range of purified proteins. To assess dual target engagement, biotinylated active C1s or Bb was loaded onto sensors, followed by purified proteins (“first association phase”), followed by the non-captured complement target (Bb or active C1s, non-biotinylated; “second association phase”). The assays were performed at 30° C. using PBS with 0.1% Tween 20 as a diluent (FIG. 3).

[4] = target: T1, human complement C1s enzyme (activated …); test: cell-based or functional assay; remark: listed apart in the source
[5] = target: T1, human complement C1s enzyme (activated …); test: cell-based or functional assay; remark: listed apart in the source
[6] = target: T1, human complement C1s enzyme (activated …); test: SPR, purified protein
[7] = target: T1, human complement C1s enzyme (activated …); test: cell-based or functional assay; remark: listed apart in the source
[8] = target: T1, human complement C1s enzyme (activated …); test: method not given
[9] = target: T1, human complement C1s enzyme (activated …); test: BLI (Octet), biotinylated target on streptavidin sensor
[10] = target: T1, human complement C1s enzyme (activated …); test: cell-based or functional assay; remark: listed apart in the source
[11] = target: T1, human complement C1s enzyme (activated …); test: BLI (Octet), biotinylated target on streptavidin sensor; mixture of the two scFabs from construct #9
Source text: as §1

[12] = target: cynomolgus C1s (cynomolgus); test: method not given
[13] = target: T1, human complement C1s enzyme (activated …); test: cell-based or functional assay; remark: listed apart in the source
[14] = target: T1, human complement C1s enzyme (activated …); test: BLI (Octet), biotinylated target on streptavidin sensor; partially purified mixture of the two scFabs from construct #9
Source text: as §1
(§2) The third expression construct, construct #9 (FIGS. 2B and 21), is composed of a bidirectional minCBA promoter driving expression of separate transcripts encoding human codon-optimized αBb scFab or αC1s scFab [αC1s scFab+αBb scFab], each followed by a bGH poly (A) signal.

[15] = target: T2, human complement factor Bb (human, UniProt P00751 260-764); test: cell-based or functional assay
T2 sequence (P00751 260-764): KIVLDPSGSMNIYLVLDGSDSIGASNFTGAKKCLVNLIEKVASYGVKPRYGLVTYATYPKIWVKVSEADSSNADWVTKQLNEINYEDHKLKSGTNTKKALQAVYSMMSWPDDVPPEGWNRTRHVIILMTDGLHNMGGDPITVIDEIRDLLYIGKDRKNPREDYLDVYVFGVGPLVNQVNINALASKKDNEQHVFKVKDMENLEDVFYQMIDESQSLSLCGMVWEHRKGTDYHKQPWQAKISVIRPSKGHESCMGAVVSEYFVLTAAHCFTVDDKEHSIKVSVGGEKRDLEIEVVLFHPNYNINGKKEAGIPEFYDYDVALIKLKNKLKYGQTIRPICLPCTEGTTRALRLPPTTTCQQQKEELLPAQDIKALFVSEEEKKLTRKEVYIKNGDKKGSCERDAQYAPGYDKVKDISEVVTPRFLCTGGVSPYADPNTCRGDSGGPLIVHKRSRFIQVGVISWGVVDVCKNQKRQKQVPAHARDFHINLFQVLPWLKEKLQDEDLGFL

[16] = target: T2, human complement factor Bb; test: BLI (Octet), biotinylated target on streptavidin sensor; protein purified to >98%
Source text: as §1

[17] = target: T2, human complement factor Bb; test: cell-based or functional assay; remark: listed apart in the source
[18] = target: T2, human complement factor Bb; test: cell-based or functional assay; remark: listed apart in the source
[19] = target: T2, human complement factor Bb; test: SPR, purified protein
[20] = target: T2, human complement factor Bb; test: cell-based or functional assay; remark: listed apart in the source
[21] = target: T3, cynomolgus Bb (cynomolgus, UniProt A0A2K5TZY3 260-763); test: method not given
T3 construct: Named only in the sentence that gives the KD; also called cynomolgus target
T3 sequence (A0A2K5TZY3 entry or part of it): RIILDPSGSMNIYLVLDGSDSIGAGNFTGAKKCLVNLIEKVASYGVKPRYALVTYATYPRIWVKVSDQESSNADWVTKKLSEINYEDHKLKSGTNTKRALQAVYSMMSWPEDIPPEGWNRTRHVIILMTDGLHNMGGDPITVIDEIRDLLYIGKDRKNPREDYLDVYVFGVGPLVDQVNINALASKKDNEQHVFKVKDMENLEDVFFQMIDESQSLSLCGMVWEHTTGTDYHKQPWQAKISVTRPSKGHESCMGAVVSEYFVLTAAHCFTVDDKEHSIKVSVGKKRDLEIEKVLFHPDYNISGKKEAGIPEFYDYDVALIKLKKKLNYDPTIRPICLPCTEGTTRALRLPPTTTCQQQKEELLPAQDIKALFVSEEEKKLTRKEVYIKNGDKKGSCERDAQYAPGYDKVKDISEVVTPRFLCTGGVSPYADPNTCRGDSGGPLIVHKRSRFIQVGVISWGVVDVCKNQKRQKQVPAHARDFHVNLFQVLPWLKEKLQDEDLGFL

[22] = target: T2, human complement factor Bb; test: BLI (Octet), biotinylated target on streptavidin sensor
[23] = target: T2, human complement factor Bb; test: cell-based or functional assay; remark: listed apart in the source
[24] = target: T2, human complement factor Bb; test: BLI (Octet), biotinylated target on streptavidin sensor; partially purified mixture of the two scFabs from construct #9; mixture of the two scFabs from construct #9
Source text: as §1, §2

[25] = target: T2, human complement factor Bb; test: BLI (Octet), biotinylated target on streptavidin sensor; mixture of the two scFabs from construct #9
Source text: as §1

[26] = target: T2, human complement factor Bb; test: cell-based or functional assay; remark: listed apart in the source
[27] = target: T2, human complement factor Bb; test: BLI (Octet), biotinylated target on streptavidin sensor; remark: listed apart in the source
[28] = target: T1, human complement C1s enzyme (activated …); test: as above; remark: listed apart in the source
[29] = target: T2, human complement factor Bb; test: SPR

B1: anti-C1s scFab (construct #2) (Fab)
chain: DIVLTQSPDSLAVSLGERATISCKASQSVDYDGDSYMNWYQQKPGQPPKILIYDASNLESGIPARFSGSGSGTDFTLTISSLEPEDFAIYYCQQSNEDPWTFGGGTKVEIKRTVAAPSVFIFPPSDEQLKSGTASVVCLLNNFYPREAKVQWKVDNALQSGNSQESVTEQDSKDSTYSLSSTLTLSKADYEKHKVYACEVTHQGLSSPVTKSFNRGECGGGGSGGGGSGGGGSGGGGSGGGGSGGGGSGGGGSQVQLVQSGAEVKKPGASVKLSCTASGFNIKDDYIHWVKQAPGQGLEWIGRIDPADGHTKYAPKFQVKVTITADTSTSTAYLELSSLRSEDTAVYYCARYGYGREVFDYWGQGTTVTVSSASTKGPSVFPLAPCSRSTSESTAALGCLVKDYFPEPVTVSWNSGALTSGVHTFPAVLQSSGLYSLSSVVTVPSSSLGTKTYTCNVDHKPSNTKVDKRV
notes: Single-chain Fab: LC-(G4S)7-HC (VH-CH1); there it stood in a mixture with the anti-Bb scFab; also called αC1s scFab; Purified anti-C1s scFab
Wieslab CP IC50 of #9-derived fragments, fold of purified anti-C1s Fab [1]: ~25 fold | Kd [2]: 1.9 nM | Kd [3]: 0.3 nM | CP IC50 (Wieslab), mixture of scFabs from construct #9 [4]: 157 nM | Wieslab classical pathway IC50 [5]: 6.7 nM | Kd [6]: 0.3 nM | IC50 CP (Wieslab) [7]: 7.2 nM | IC50 CP (Wieslab), mixture of scFabs from construct #9 [7]: 157 nM | Kd [8]: 0.34 nM | Kd [9]: 0.3 nM | IC50 (nM), complement activation with CP and AP activated simultaneously in vitro [10]: 97.3 nM | koff [11]: 0.00028 s⁻¹ | kon [11]: 150000 M⁻¹ s⁻¹ | Kd [12]: 0.016 nM | IC50 CP Wieslab EIA [13]: 7.2 nM | Kd [14]: 1.8 nM

B2: anti-Bb scFab (construct #4) (Fab)
chain: DIQMTQSPSTLSASVGDRVTITCKASQDVGTAVAWYQQKPGKAPKLLIYWASTRHTGVPDRFSGSGSGTDFTLTISSLQAEDFAVYFCHQHSSNPLTFGQGTKLEIKRTVAAPSVFIFPPSDEQLKSGTASVVCLLNNFYPREAKVQWKVDNALQSGNSQESVTEQDSKDSTYSLSSTLTLSKADYEKHKVYACEVTHQGLSSPVTKSFNRGECGGGGSGGGGSGGGGSGGGGSGGGGSGGGGSGGGGSEVQLVESGGGLVKPGGSLRLSCAASGFTFSNYAMSWVRQAPGKRLEWVATISNRGSYTYYPDSVKGRFTISRDNAKNSLYLQMNSLRAEDTALYYCARERPMDYWGQGTLVTVSSASTKGPSVFPLAPCSRSTSESTAALGCLVKDYFPEPVTVSWNSGALTSGVHTFPAVLQSSGLYSLSSVVTVPSSSLGTKTYTCNVDHKPSNTKVDKRV
notes: Single-chain Fab: LC-(G4S)7-HC (VH-CH1); there it stood in a mixture with the anti-C1s scFab; also called αBb scFab; Purified anti-Bb scFab
Wieslab AP IC50 of #9-derived fragments, fold of purified anti-Bb Fab [15]: ~3 fold | Kd [16]: 0.7 nM | AP IC50 (Wieslab), mixture of scFabs from construct #9 [17]: 224 nM | Wieslab alternative pathway IC50 [18]: 190 nM | Kd [19]: 3.7 nM | IC50 AP (Wieslab) [20]: 193 nM | IC50 AP (Wieslab), mixture of scFabs from construct #9 [20]: 224 nM | Kd [21]: 14.8 nM | Kd [22]: 0.7 nM | koff [22]: 0.00049 s⁻¹ | kon [22]: 670000 M⁻¹ s⁻¹ | IC50 (nM), complement activation with CP and AP activated simultaneously in vitro [23]: 633 nM | Kd [24]: 0.9 nM | Kd [25]: 0.8 nM | koff [25]: 0.0002 s⁻¹ | kon [25]: 260000 M⁻¹ s⁻¹ | IC50 AP Wieslab EIA [26]: 193 nM

B3: parental anti-Bb Fab (Fab, V domains shown)
VH: EVQLVESGGGLVKPGGSLRLSCAASGFTFSNYAMSWVRQAPGKRLEWVATISNRGSYTYYPDSVKGRFTISRDNAKNSLYLQMNSLRAEDTALYYCARERPMDYWGQGTLVTVSS
VL: DIQMTQSPSTLSASVGDRVTITCKASQDVGTAVAWYQQKPGKAPKLLIYWASTRHTGVPDRFSGSGSGTDFTLTISSLQAEDFAVYFCHQHSSNPLTFGQGTKLEIKR
notes: also called Purified anti-Bb Fab
Kd [27]: 0.7 nM | AP IC50 (Wieslab) [17]: 99 nM | Wieslab alternative pathway IC50 [18]: 144 nM | Kd [19]: 2.7 nM | IC50 AP (Wieslab) [20]: 144 nM | Kd [22]: 0.73 nM | koff [22]: 0.00051 s⁻¹ | kon [22]: 700000 M⁻¹ s⁻¹ | IC50 (nM), complement activation with CP and AP activated simultaneously in vitro [23]: 463 nM

B4: parental anti-C1s Fab (Fab, V domains shown)
VH: QVQLVQSGAEVKKPGASVKLSCTASGFNIKDDYIHWVKQAPGQGLEWIGRIDPADGHTKYAPKFQVKVTITADTSTSTAYLELSSLRSEDTAVYYCARYGYGREVFDYWGQGTTVTVSS
VL: DIVLTQSPDSLAVSLGERATISCKASQSVDYDGDSYMNWYQQKPGQPPKILIYDASNLESGIPARFSGSGSGTDFTLTISSLEPEDFAIYYCQQSNEDPWTFGGGTKVEIKR
notes: also called Purified anti-C1s Fab
Kd [28]: 0.3 nM | CP IC50 (Wieslab) [4]: 6 nM | Wieslab classical pathway IC50 [5]: 5.5 nM | Kd [6]: 0.3 nM | IC50 CP (Wieslab) [7]: 5.4 nM | Kd [9]: 0.3 nM | IC50 (nM), complement activation with CP and AP activated simultaneously in vitro [10]: 68.2 nM

B5: parental anti-Bb IgG4 antibody VH6/Vκ7-IgG4v2 (antibody, V domains shown)
VH: EVQLVESGGGLVKPGGSLRLSCAASGFTFSNYAMSWVRQAPGKRLEWVATISNRGSYTYYPDSVKGRFTISRDNAKNSLYLQMNSLRAEDTALYYCARERPMDYWGQGTLVTVSS
VL: DIQMTQSPSTLSASVGDRVTITCKASQDVGTAVAWYQQKPGKAPKLLIYWASTRHTGVPDRFSGSGSGTDFTLTISSLQAEDFAVYFCHQHSSNPLTFGQGTKLEIK
notes: IgG4 (IgG4v2), from U.S. Pat. No. 11,242,382 and WO 2021/216458; full chains of the mAb are not; also called anti-Bb mAb
Wieslab alternative pathway IC50 [18]: 190 nM | Kd [29]: 7.3 nM
